Paper PMC4072508, “Genome-Wide Prediction and Validation of Peptides That Bind Human Prosurvival Bcl-2 Proteins” (PLoS Computational Biology, 2014)

T1: Bcl-w, Q92843
T1 chain: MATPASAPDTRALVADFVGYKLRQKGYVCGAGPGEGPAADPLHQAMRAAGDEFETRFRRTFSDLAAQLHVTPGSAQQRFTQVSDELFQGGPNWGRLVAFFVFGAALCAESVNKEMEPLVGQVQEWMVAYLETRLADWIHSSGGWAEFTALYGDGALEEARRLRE

T2: Bfl-1, Q16548
T2 chain: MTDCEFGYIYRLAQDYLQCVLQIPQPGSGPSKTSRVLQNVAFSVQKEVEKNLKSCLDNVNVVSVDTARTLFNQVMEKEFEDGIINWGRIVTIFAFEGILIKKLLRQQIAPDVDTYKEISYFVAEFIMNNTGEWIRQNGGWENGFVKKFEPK

T3: Mcl-1, Q07820
T3 chain: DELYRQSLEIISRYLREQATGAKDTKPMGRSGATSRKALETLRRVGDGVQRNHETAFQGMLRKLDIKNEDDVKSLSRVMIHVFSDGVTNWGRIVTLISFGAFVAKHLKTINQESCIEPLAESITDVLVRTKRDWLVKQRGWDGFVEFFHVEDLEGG


Tests used:
Assay in all cases: peptide SPOT array, c-Myc-tagged receptor at 1 uM or 100 nM, anti-c-Myc-Cy3
Bcl-2, P10415 = biological target: Bcl-2, P10415
Bcl-w, Q92843 = biological target: T1, Bcl-w, Q92843
Bcl-xL, Q07817 = biological target: Bcl-xL, Q07817
Bfl-1, Q16548 = biological target: T2, Bfl-1, Q16548
Mcl-1, Q07820 = biological target: T3, Mcl-1, Q07820

Chain of Bcl-xL, Q07817 (Q07817 1-209): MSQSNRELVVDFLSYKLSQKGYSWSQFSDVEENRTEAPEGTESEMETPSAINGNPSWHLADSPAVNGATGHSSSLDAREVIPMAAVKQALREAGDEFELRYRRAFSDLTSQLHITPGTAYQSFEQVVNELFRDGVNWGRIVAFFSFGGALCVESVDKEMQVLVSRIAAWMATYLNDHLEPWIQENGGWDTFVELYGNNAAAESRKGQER
Chain of Bcl-2, P10415 (P10415 1-217): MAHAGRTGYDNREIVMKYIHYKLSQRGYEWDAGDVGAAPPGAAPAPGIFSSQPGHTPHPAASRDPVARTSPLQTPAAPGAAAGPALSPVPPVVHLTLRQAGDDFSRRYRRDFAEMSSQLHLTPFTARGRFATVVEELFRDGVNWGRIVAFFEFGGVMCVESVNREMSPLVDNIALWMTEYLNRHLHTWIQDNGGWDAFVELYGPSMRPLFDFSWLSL

Binder | SPOT signal as a fraction of Bim BH3's signal on the same receptor and array (Bcl-2, P10415) | SPOT signal as a fraction of Bim BH3's signal on the same receptor and array (Bcl-w, Q92843) | SPOT signal as a fraction of Bim BH3's signal on the same receptor and array (Bcl-xL, Q07817) | SPOT signal as a fraction of Bim BH3's signal on the same receptor and array (Bfl-1, Q16548) | SPOT signal as a fraction of Bim BH3's signal on the same receptor and array (Mcl-1, Q07820)
DISALTASNLLKKYAEKYSGILEGPV [FIGN] | 0.06 | 0.13 | 0.1 | 0.33 | 0.13
AYRGRGIAKHLAKAALDFVVEEDLKA [C17orf103] | 0.05 | 0.29 | 0.36 | 0.11 | 0.07
MEGSDALALRLACIGDEMDVSLRAPR [BIK] | 0.72 | 0.74 | – | 0.43 | –
GVAASDFIRSLDHCGDLALEGVFSHK [NLRC4] | 0.01 | 0.02 | 0.02 | 0.01 | 0.02
VDVIDDHERGLIRNGRDFLLALERQG [DEDD] | 0.01 | 0.02 | 0.03 | 0.02 | 0.04
SGEFARICRDLSHIGDAVVISCAKDG [PCNA] | 0.01 | 0.03 | – | 0.03 | –
NWFGDWSTEALYQVGKEFTSKMDLEK [DYNC1H1] | 0.02 | 0.03 | 0.04 | 0.03 | 0.03
SQRGTDFSVLLSSAGDSFSQFRFAEE [AVEN] | 0.02 | 0.07 | 0.16 | 0.03 | 0.06
CGEWTRRSLHLRVLGRQLILPTDKGV [FAM149A] | – | – | 1.07 | 0.7 | 0.76
YTCRGHIPGFLQTTADEFCFYYARKD [HHIP] | 0.02 | 0.1 | 0.07 | 0.06 | 0.04
DAIIQMIVELLKRVGDQWEEEQSLAS [C6orf222] | 0.01 | 0.33 | 0.16 | 0.06 | 0.09
VFERCELARTLKRLGMDGYRGISLAN [LYZ] | 0.27 | 0.69 | 0.65 | 0.74 | 0.38
CLSCDLCGCRLGEVGRRLYYKLGRKL [LMO2] | 0.59 | 1.8 | 1.18 | 1.61 | 0.86
FQQLRHRIQDLEQLAKEQDKESEKQL [BNIP1] | 0.02 | 0.04 | – | 0.08 | –
EQILAKIVELLKYSGDQLERKLKKDK [BCL2L14] | 0.49 | 0.74 | – | 0.75 | –
PFDCRDYAVVLRKYADKIYNISMKHP [FOLH1B] | 0.36 | 1.25 | – | 0.63 | –

Other lines, results leading:

SPOT signal as a fraction of Bim BH3's signal on the same receptor and array (Bcl-2, P10415) | SPOT signal as a fraction of Bim BH3's signal on the same receptor and array (Bcl-w, Q92843) | SPOT signal as a fraction of Bim BH3's signal on the same receptor and array (Bcl-xL, Q07817) | SPOT signal as a fraction of Bim BH3's signal on the same receptor and array (Bfl-1, Q16548) | SPOT signal as a fraction of Bim BH3's signal on the same receptor and array (Mcl-1, Q07820) | Binder
0.02 | 0.03 | – | 0.1 | – | KGKIDVCIVLLQHGADPNIRNTDGKS
0.01 | 0.01 | 0.02 | 0.01 | 0.02 | ALNAQPSAEELSKIADSVNLPLDVVK [ZEB1]
0.13 | 0.5 | – | 0.48 | – | HPKRKQVTELLLRKGANVNEKNKDFM
– | – | 0.05 | 0.03 | 0.03 | TSRINEVQVNDSLLGDDLLLPAQSTL [SPHKAP]
0.01 | 0.02 | 0.03 | 0.03 | 0.02 | QLRLSDAGQYLCQAGDDSNSNKKNAD [PIGR]
0.01 | 0.02 | – | 0.03 | – | AGLDMNISQFLKSLGLEHLRDIFETE
0.01 | 0.02 | – | 0.02 | – | HVDGLHSSEELRNLGWDFSQEKPSTT [SETD2]
0.01 | 0.02 | – | 0.03 | – | VKVLGKAVHSLSRIGDELYLEPLEDG [RAD9A]
0.07 | 0.48 | – | 0.34 | – | EGTKIVLGKQLIESADEVRRKSLVLK [TAF1]
0.1 | 0.89 | – | 0.23 | – | VKVFGKAVQALSRISDEFWLDPSKKG [RAD9B]
